Earlier results on one substance are cited in paper PMC4941815.

One data set deals with CLK1 (Homo sapiens) (UniProt P49759). The experiment in a line: competition.
For a further data set, the target named is SRPK1 (Homo sapiens) (UniProt Q96SB4). The experiment in a line: competition.
Chain of SRPK1 (Homo sapiens) (Q96SB4 whole entry): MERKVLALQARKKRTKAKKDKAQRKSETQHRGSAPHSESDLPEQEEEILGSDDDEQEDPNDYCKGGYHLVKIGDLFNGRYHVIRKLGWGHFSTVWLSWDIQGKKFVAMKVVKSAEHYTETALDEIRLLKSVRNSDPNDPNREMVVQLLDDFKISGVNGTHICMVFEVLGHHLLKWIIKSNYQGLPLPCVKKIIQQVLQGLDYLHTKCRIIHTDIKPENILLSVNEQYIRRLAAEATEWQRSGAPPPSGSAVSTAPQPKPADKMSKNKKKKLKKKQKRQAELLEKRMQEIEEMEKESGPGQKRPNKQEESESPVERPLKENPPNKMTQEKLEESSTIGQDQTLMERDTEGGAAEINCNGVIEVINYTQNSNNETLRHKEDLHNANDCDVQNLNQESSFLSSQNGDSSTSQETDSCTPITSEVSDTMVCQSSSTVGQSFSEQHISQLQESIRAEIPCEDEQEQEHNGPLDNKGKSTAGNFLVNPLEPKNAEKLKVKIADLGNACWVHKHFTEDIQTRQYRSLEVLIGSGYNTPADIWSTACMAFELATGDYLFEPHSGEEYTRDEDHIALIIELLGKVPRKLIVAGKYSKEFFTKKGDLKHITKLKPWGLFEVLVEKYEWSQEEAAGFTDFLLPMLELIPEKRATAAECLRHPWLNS

Chain of SRSF1 (Q07955 2-248): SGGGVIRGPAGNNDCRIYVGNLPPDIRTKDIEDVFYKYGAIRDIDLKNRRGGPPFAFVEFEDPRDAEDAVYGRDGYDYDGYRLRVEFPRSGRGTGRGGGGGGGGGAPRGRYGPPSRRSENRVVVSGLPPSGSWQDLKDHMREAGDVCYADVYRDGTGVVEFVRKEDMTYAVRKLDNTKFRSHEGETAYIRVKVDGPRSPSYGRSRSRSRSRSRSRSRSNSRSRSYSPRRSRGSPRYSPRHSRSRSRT
Chain of CLK1 (Homo sapiens) (P49759 whole entry): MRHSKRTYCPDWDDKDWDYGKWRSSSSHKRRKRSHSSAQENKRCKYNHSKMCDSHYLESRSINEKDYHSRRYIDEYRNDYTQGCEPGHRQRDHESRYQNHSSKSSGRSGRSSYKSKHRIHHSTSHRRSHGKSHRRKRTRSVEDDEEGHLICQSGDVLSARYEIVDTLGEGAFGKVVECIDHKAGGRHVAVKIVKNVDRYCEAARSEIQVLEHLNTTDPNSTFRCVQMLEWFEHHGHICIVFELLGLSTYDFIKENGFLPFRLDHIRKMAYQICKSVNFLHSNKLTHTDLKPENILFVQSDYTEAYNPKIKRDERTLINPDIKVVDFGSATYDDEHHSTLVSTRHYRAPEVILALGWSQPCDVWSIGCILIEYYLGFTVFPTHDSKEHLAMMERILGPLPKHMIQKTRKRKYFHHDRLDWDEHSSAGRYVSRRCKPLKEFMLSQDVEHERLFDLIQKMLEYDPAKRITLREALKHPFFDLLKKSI

Usually Kd stands for the constant that tells how readily two partners part at equilibrium. For SRSF1 (from UniProt Q07955), the Kd in the data set with CLK1 (Homo sapiens) is 6 nM; with SRPK1 (Homo sapiens), 60 nM.
